The text below walks through data of US20210299283A1 (SANFORD BURNHAM PREBYS MEDICAL DISCOVERY INSTITUTE, published 2021).

The target in assay [1] is T1, CTGF, endogenous human (U251 astrocytoma cell lysate; human AD brain sections) (human, UniProt P29279 27-349, limits assumed).
T1 construct: Native protein in a cell lysate, on cells or in tissue sections; Identified by LC-MS/MS against the Uniprot database; also called CCN2; connective tissue growth factor
T1 sequence (looked up): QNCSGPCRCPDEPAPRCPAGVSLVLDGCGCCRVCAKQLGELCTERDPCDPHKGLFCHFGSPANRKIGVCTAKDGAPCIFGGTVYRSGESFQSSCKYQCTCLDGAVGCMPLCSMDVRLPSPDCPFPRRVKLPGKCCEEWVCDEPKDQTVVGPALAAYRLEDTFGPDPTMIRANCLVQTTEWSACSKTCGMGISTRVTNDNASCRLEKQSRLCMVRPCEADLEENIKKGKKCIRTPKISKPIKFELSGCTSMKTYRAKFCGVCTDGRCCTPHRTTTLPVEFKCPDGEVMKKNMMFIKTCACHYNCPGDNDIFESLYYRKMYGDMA
Nature of the assay: affinity chromatography of U251 cell lysate on biotin-DAG magnetic particles, control peptide wash, elution with 1 mM free DAG, LC-MS/MS. As to the method:
For identifying DAG binding proteins, the human glioblastoma astrocytoma cell line U251 was lysed in PBS containing 200 mM n-octyl-beta-D-glucopyranoside and protease inhibitor cocktail (Roche) as described previously with slight modifications. The clarified lysates were loaded on to Sera-Mag magnetic particles (GE Healthcare Lifesciences, USA) coated with biotin-DAG, and incubated overnight with rotation at 4° C. The magnetic beads were washed with wash buffer followed by additional washing with 0.5 mM control peptide ([…]; SEQ ID NO: 103) to remove non-specifically bound proteins. The bound proteins were eluted with 1 mM free DAG peptide. The eluted factions were pooled, their protein concentration determined by using bicinchoninic acid (BCA) protein assay (Pierce) and the samples were digested using the Filter-aided Sample Preparation (FASP) method. Finally, the digested samples were dried, desalted and subjected to LC-MS/MS analysis at the Sanford Burnham Prebys Medical Discovery Institute's Proteomics Core facility. All mass spectra were analyzed with MaxQuant™ software version 1.5.0.25. The MS/MS spectra were searched against the Uniprot™ protein sequence database (version July 2014).

Assay [2] deals with T1, CTGF, endogenous human (U251 …). Nature of the assay: DAG-AgNP binding to cultured U251 cells, fluorescence microscopy. As to the method:
FIG. 7 is a graphical representation showing quantity of DAG-coated silver nanoparticles (DAG-AgNPs) binding to human astrocytoma U251 cells. Cultured U251 cells were incubated with DAG-AgNPs alone, in the presence of free non-labeled control peptide, or an excess of free, non-labeled DAG (both at 200 μM), for 1 hour at 37° C. Nanoparticle binding was quantified from fluorescence micrographs using ImageJ™ software. Scale bar, 20 μm.
Cell binding experiments on U251 cells and hiPSCs were with done using peptide conjugated AgNP. U251 cells were cultured in a 96-well plate. The cells were blocked with 200 μl of 10% FCS in HBSS (Hanks' Balanced Salt Solution from Gibco) for 30 min at 37° C. Following that, DAG-AgNPs (0.5 nM concentration diluted in HBSS) alone or in the presence of free non-labeled peptide (200 μM) were incubated on the cells for 1 hour at 37° C. After washing the unbound AgNP with HBSS three times, the plates were imaged with fluorescent microscopy by looking at intrinsic emission from the FAM tag on the peptide. hiPSCs were cultured in 48 well plate and similar protocol as described above was followed, with the exception that AgNP concentration for incubation was kept at 0.15 nM. Nanoparticle binding was quantified from fluorescence micrographs using ImageJ™ software.

Primed or numbered codes have the meaning given here. Where no end group is shown, it is not given here. [ ]: non-standard residue; d: D form. Ahx = NCCCCCC(=O)O; FAM″ = fluorescein

B1: DAG peptide (CDAGRKQKC), labelled synthetic cyclic peptide (peptide)
peptide: CDAGRKQKC-NH2
modifications: not fully specified (bridges); also: fluorescein (FAM) or biotin tag at the N-terminus, described as a cyclic peptide, ring not given here
notes: also called FAM-DAG; FAM-labeled DAG
B1: in assay [1], the binding result is “binds”.

B2: DAG-conjugated silver nanoparticles (FAM-cys-x-DAG-NH2 on AgNPs) (peptide)
peptide: {FAM″}-C[Ahx]CDAGRKQKC-NH2
modifications: also: conjugated via the added Cys thiol to maleimide-PEG on silver nanoparticles
notes: Many copies of the peptide on silver nanoparticles of about 35 nm; also called DAG-AgNP; DAG-AgNPs
As for B2, in assay [2], the binding result is “binds”.
